The source of these data is patent US20160096882A1.

Test in all cases: cell-based or functional assay
Assay [1] deals with H5N1 Vietnam/1203/04 hemagglutinin (Influenza A virus H5N1 Vietnam/1203/04).
Assay [2] addresses H1N1 New Caledonia/20/99 hemagglutinin (Influenza A virus H1N1 New Caledonia/20/99).
Assay [3] addresses H3N2 Wisconsin/67/05 hemagglutinin (Influenza A virus H3N2 Wisconsin/67/05).

B1: 1286-A11 antibody (antibody, V domains shown)
VH: QVQLQQSGPRLVKPSQTLSLTCAISGDSVSGDSGTWNWIRQSPSRGLEWLGRTYYRSKWYNDYAESVKSRIVIKADTSKNEFSLQLNSVTPEDTAIYYCARAGVKIFGLIVGALDNWGRGTLVTVSS
VL: EIVMTQSPGTLSLSPGERATLSCRASQSVSSSYLAWYQQKPGQAPRLLIYGASTRATGVPDRFHGGGSGTDFTLTISRLEPEDFAVYYCQQYDTSSGLTFGGGTKVEIK
With B1, the Neutralization MIC in assay [1] was 333 mg/L; in assay [2] it was 83 mg/L; in assay [3], more than 333 mg/L.
